From patent US20250369983A1

Molecular target: full length gp41 HIV protein (Abcam) (human immunodeficiency virus-1 (HIV-1))
Experiment: ELISA titration: plates coated with 1 µg/mL antigen, 2F5 in 4-fold dilutions; y axis without label (absorbance)

2F5, broadly neutralizing human monoclonal antibody (Polymun Scientific)
EC50 (read off the curve): 0.1 µg/mL
